Reference: the supplement of paper PMC11246515
± gives the standard deviation of the averaged measurements.

Assay: total protein half-life in vivo (active degradation + dilution); higher = more stable protein
[1] = E. coli NCM3722 delta-clpP delta-lon delta-hslV, growth: N-lim chemostat, doubling time 6 h
[2] = wild type E. coli NCM3722, growth: C-lim chemostat, doubling time 3 h
[3] = wild type E. coli NCM3722, growth: C-lim chemostat, doubling time 6 h
[4] = wild type E. coli NCM3722, growth: C-lim chemostat, doubling time 12 h
[5] = wild type E. coli NCM3722, growth: N-lim chemostat, doubling time 6 h
[6] = wild type E. coli NCM3722, growth: P-lim chemostat, doubling time 6 h
[7] = E. coli NCM3722 delta-clpP, growth: N-lim chemostat, doubling time 6 h
[8] = E. coli NCM3722 delta-hslV, growth: N-lim chemostat, doubling time 6 h
[9] = E. coli NCM3722 delta-smpB, growth: N-lim chemostat, doubling time 6 h
[10] = wild type E. coli NCM3722, growth: N-lim chemostat, doubling time 12 h
[11] = wild type E. coli NCM3722, growth: P-lim chemostat, doubling time 12 h
[12] = E. coli NCM3722 delta-lon, growth: N-lim chemostat, doubling time 6 h

Sequence | total protein half-life in vivo [1] | total protein half-life in vivo [2] | total protein half-life in vivo [3] | total protein half-life in vivo [4] | total protein half-life in vivo [5] | total protein half-life in vivo [6] | total protein half-life in vivo [7] | total protein half-life in vivo [8] | total protein half-life in vivo [9] | total protein half-life in vivo [10] | total protein half-life in vivo [11] | total protein half-life in vivo [12]
MSTQYETQGYTINNAGRRLVVDPITRIEGHMRCEVNINDQNVITNAVSCGTMFRGLEIILQGRDPRDAWAFVERICGVCTGVHALASVYAIEDAIGIKVPDNANIIRNIMLATLWCHDHLVHFYQLAGMDWIDVLDALKADPRKTSELAQSLSSWPKSSPGYFFDVQNRLKKFVEGGQLGIFRNGYWGHPQYKLPPEANLMGFAHYLEALDFQREIVKIHAVFGGKNPHPNWIVGGMPCAINIDESGAVGAVNMERLNLVQSIITRTADFINNVMIPDALAIGQFNKPWSEIGTGLSDKCVLSYGAFPDIANDFGEKSLLMPGGAVINGDFNNVLPVDLVDPQQVQEFVDHAWYRYPNDQVGRHPFDGITDPWYNPGDVKGSDTNIQQLNEQERYSWIKAPRWRGNAMEVGPLARTLIAYHKGDAATVESVDRMMSALNLPLSGIQSTLGRILCRAHEAQWAAGKLQYFFDKLMTNLKNGNLATASTEKWEPATWPTECRGVGFTEAPRGALGHWAAIRDGKIDLYQCVVPTTWNASPRDPKGQIGAYEAALMNTKMAIPEQPLEILRTLHSFDPCLACSTHVLGDDGSELISVQVR [P0ACD8] | 4.51 ± 0.84 h |  |  |  |  |  |  |  |  |  |  | 
MLAFLNQVRKPTLDLPLEVRRKMWFKPFMQSYLVVFIGYLTMYLIRKNFNIAQNDMISTYGLSMTQLGMIGLGFSITYGVGKTLVSYYADGKNTKQFLPFMLILSAICMLGFSASMGSGSVSLFLMIAFYALSGFFQSTGGSCSYSTITKWTPRRKRGTFLGFWNISHNLGGAGAAGVALFGANYLFDGHVIGMFIFPSIIALIVGFIGLRYGSDSPESYGLGKAEELFGEEISEEDKETESTDMTKWQIFVEYVLKNKVIWLLCFANIFLYVVRIGIDQWSTVYAFQELKLSKAVAIQGFTLFEAGALVGTLLWGWLSDLANGRRGLVACIALALIIATLGVYQHASNEYIYLASLFALGFLVFGPQLLIGVAAVGFVPKKAIGAADGIKGTFAYLIGDSFAKLGLGMIADGTPVFGLTGWAGTFAALDIAAIGCICLMAIVAVMEERKIRREKKIQQLTVA [P0AGC0] |  | 1.74 ± 0.042 h | 1.96 ± 0.031 h | 3.78 ± 2.4 h |  |  |  |  |  |  |  | 
MNQSYGRLVSRAAIAATAMASLLLLIKIFAWWYTGSVSILAALVDSLVDIGASLTNLLVVRYSLQPADDNHSFGHGKAESLAALAQSMFISGSALFLFLTGIQHLISPTPMTDPGVGVIVTIVALICTIILVSFQRWVVRRTQSQAVRADMLHYQSDVMMNGAILLALGLSWYGWHRADALFALGIGIYILYSALRMGYEAVQSLLDRALPDEERQEIIDIVTSWPGVSGAHDLRTRQSGPTRFIQIHLEMEDSLPLVQAHMVADQVEQAILRRFPGSDVIIHQDPCSVVPREGKRSMLS |  |  |  | 14.3 h | 6.34 h | 5.52 h |  |  |  |  |  | 
MDLSQLTPRRPYLLRAFYEWLLDNQLTPHLVVDVTLPGVQVPMEYARDGQIVLNIAPRAVGNLELANDEVRFNARFGGIPRQVSVPLAAVLAIYARENGAGTMFEPEAAYDEDTSIMNDEEASADNETVMSVIDGDKPDHDDDTHPDDEPPQPPRGGRPALRVVK [P0AFZ3] | 5.705 ± 0.0087 h | 2.69 ± 0.14 h | 5.89 ± 0.079 h | 7.4 ± 0.38 h | 3.26 h | 3.73 ± 0.69 h | 4.58 ± 0.2 h | 3.9 ± 0.61 h | 3.43 ± 0.19 h | 6.17 ± 3 h | 7.51 ± 0.57 h | 
MSILVTRPSPAGEELVSRLRTLGQVAWHFPLIEFSPGQQLPQLADQLAALGESDLLFALSQHAVAFAQSQLHQQDRKWPRLPDYFAIGRTTALALHTVSGQKILYPQDREISEVLLQLPELQNIAGKRALILRGNGGRELIGDTLTARGAEVTFCECYQRCAIHYDGAEEAMRWQAREVTMVVVTSGEMLQQLWSLIPQWYREHWLLHCRLLVVSERLAKLARELGWQDIKVADNADNDALLRALQ | 5.34 ± 0.71 h | 2.351 ± 0.014 h | 4.45 ± 0.14 h | 9.45 ± 3.5 h | 3.83 ± 0.21 h | 5.08 ± 0.62 h | 4.14 ± 0.96 h | 4.13 ± 0.24 h | 3.57 ± 0.23 h | 6.5 ± 0.57 h | 9.38 ± 0.13 h | 4.69 ± 0.62 h
MVLGKPQTDPTLEWFLSHCHIHKYPSKSTLIHQGEKAETLYYIVKGSVAVLIKDEEGKEMILSYLNQGDFIGELGLFEEGQERSAWVRAKTACEVAEISYKKFRQLIQVNPDILMRLSAQMARRLQVTSEKVGNLAFLDVTGRIAQTLLNLAKQPDAMTHPDGMQIKITRQEIGQIVGCSRETVGRILKMLEDQNLISAHGKTIVVYGTR [P0ACJ8] | 5.31 ± 0.51 h | 2.92 ± 0.22 h | 5.84 ± 0.064 h | 10 ± 0.63 h | 4.582 ± 0.038 h | 5.09 ± 0.27 h | 5.17 ± 0.55 h | 4.68 ± 0.23 h | 4.55 ± 0.33 h | 7.59 ± 0.18 h | 9.72 ± 0.62 h | 4.86 ± 0.09 h
MNGLLRIRQRYQGLAQSDKKLADYLLLQPDTARHLSSQQLANEAGVSQSSVVKFAQKLGYKGFPALKLALSEALASQPESPSVPIHNQIRGDDPLRLVGEKLIKENTAAMYATLNVNSEEKLHECVTMLRSARRIILTGIGASGLVAQNFAWKLMKIGFNAAAVRDMHALLATVQASSPDDLLLAISYTGVRRELNLAADEMLRVGGKVLAITGFTPNALQQRASHCLYTIAEEQATNSASISACHAQGMLTDLLFIALIQQDLELAPERIRHSEALVKKLV | 5.79 ± 0.53 h | 2.44 ± 0.087 h | 4.31 ± 0.2 h | 5.65 ± 1.1 h | 2.8 ± 0.11 h | 3.73 ± 0.18 h | 4.3186 ± 0.00083 h | 2.83 ± 0.031 h | 3.5 ± 0.69 h | 4.19 ± 0.29 h | 7.58 ± 1.8 h | 3.72 ± 0.33 h
MSEMTPREIVSELDKHIIGQDNAKRSVAIALRNRWRRMQLNEELRHEVTPKNILMIGPTGVGKTEIARRLAKLANAPFIKVEATKFTEVGYVGKEVDSIIRDLTDAAVKMVRVQAIEKNRYRAEELAEERILDVLIPPAKNNWGQTEQQQEPSAARQAFRKKLREGQLDDKEIEIDLAAAPMGVEIMAPPGMEEMTSQLQSMFQNLGGQKQKARKLKIKDAMKLLIEEEAAKLVNPEELKQDAIDAVEQHGIVFIDEIDKICKRGESSGPDVSREGVQRDLLPLVEGCTVSTKHGMVKTDHILFIASGAFQIAKPSDLIPELQGRLPIRVELQALTTSDFERILTEPNASITVQYKALMATEGVNIEFTDSGIKRIAEAAWQVNESTENIGARRLHTVLERLMEEISYDASDLSGQNITIDADYVSKHLDALVADEDLSRFIL [P0A6H5] | 5.09 ± 0.28 h | 2.95 ± 0.36 h | 5.94 ± 0.93 h | 10.3 ± 0.44 h | 4.79 ± 0.11 h | 5.29 ± 0.054 h | 5.18 ± 0.56 h | 4.46 ± 0.12 h | 4.21 ± 0.085 h | 8.11 ± 0.2 h | 10.98 ± 0.036 h | 5.23 ± 0.29 h
MSHHHEGCCKHEGQPRHEGCCKGEKSEHEHCGHGHQHEHGQCCGGRHGRGGGRRQRFFGHGELRLVILDILSRDDSHGYELIKAIENLTQGNYTPSPGVIYPTLDFLQEQSLITIREEEGGKKQIALTEQGAQWLEENREQVEMIEERIKARCVGAALRQNPQMKRALDNFKAVLDLRVNQSDISDAQIKKIIAVIDRAAFDITQLD | 4.91 ± 0.66 h | 2.55 ± 0.029 h | 4.67 ± 0.56 h | 8.76 ± 2.2 h | 3.65 ± 0.74 h | 4.8 ± 0.27 h |  | 3.22 ± 0.047 h | 3.33 ± 0.41 h | 5.05 ± 0.53 h | 8.64 ± 0.59 h | 4.273 ± 0.011 h
MNKEQSADDPSVDLIRVKNMLNSTISMSYPDVVIACIEHKVSLEAFRAIEAALVKHDNNMKDYSLVVD | > 8 h | 2.94 ± 0.043 h |  | 9.95 h |  | 4.21 h |  | > 8 h |  | 10.8 ± 6 h |  | > 8 h
MSLNMFWFLPTHGDGHYLGTEEGSRPVDHGYLQQIAQAADRLGYTGVLIPTGRSCEDAWLVAASMIPVTQRLKFLVALRPSVTSPTVAARQAATLDRLSNGRALFNLVTGSDPQELAGDGVFLDHSERYEASAEFTQVWRRLLQRETVDFNGKHIHVRGAKLLFPAIQQPYPPLYFGGSSDVAQELAAEQVDLYLTWGEPPELVKEKIEQVRAKAAAHGRKIRFGIRLHVIVRETNDEAWQAAERLISHLDDETIAKAQAAFARTDSVGQQRMAALHNGKRDNLEISPNLWAGVGLVRGGAGTALVGDGPTVAARINEYAALGIDSFVLSGYPHLEEAYRVGELLFPLLDVAIPEIPQPQPLNPQGEAVANDFIPRKVAQS | 5.43 ± 0.79 h |  |  |  |  |  |  |  |  |  |  | 
MSIKQMPGRVLISLLLSVTGLLSGCASHNENASLLAKKQAQNISQNLPIKSAGYTLVLAQSSGTTVKMTIISEAGTQTTQTPDAFLTSYQRQMCADPTVKLMITEGINYSITINDTRTGNQYQRKLDRTTCGIVKA |  |  |  |  | > 8 h | 3.91 ± 0.68 h |  |  |  |  | 7.3 ± 0.4 h | 
MHSERAPFFLKLAAWGGVVFLHFPILIIAAYAFNTEDAAFSFPPQGLTLRWFSVAAQRSDILDAVTLSLKVAALATLIALVLGTLAAAALWRRDFFGKNAISLLLLLPIALPGIVTGLALLTAFKTINLEPGFFTIVVGHATFCVVVVFNNVIARFRRTSWSLVEASMDLGANGWQTFRYVVLPNLSSALLAGGMLAFALSFDEIIVTTFTAGHERTLPLWLLNQLGRPRDVPVTNVVALLVMLVTTLPILGAWWLTREGDNGQ [P0AFR9] | 6.7 h |  |  |  |  |  |  |  |  |  |  | 
MEKTYNPQDIEQPLYEHWEKQGYFKPNGDESQESFCIMIPPPNVTGSLHMGHAFQQTIMDTMIRYQRMQGKNTLWQVGTDHAGIATQMVVERKIAAEEGKTRHDYGREAFIDKIWEWKAESGGTITRQMRRLGNSVDWERERFTMDEGLSNAVKEVFVRLYKEDLIYRGKRLVNWDPKLRTAISDLEVENRESKGSMWHIRYPLADGAKTADGKDYLVVATTRPETLLGDTGVAVNPEDPRYKDLIGKYVILPLVNRRIPIVGDEHADMEKGTGCVKITPAHDFNDYEVGKRHALPMINILTFDGDIRESAQVFDTKGNESDVYSSEIPAEFQKLERFAARKAVVAAVDALGLLEEIKPHDLTVPYGDRGGVVIEPMLTDQWYVRADVLAKPAVEAVENGDIQFVPKQYENMYFSWMRDIQDWCISRQLWWGHRIPAWYDEAGNVYVGRNEDEVRKENNLGADVVLRQDEDVLDTWFSSALWTFSTLGWPENTDALRQFHPTSVMVSGFDIIFFWIARMIMMTMHFIKDENGKPQVPFHTVYMTGLIRDDEGQKMSKSKGNVIDPLDMVDGISLPELLEKRTGNMMQPQLADKIRKRTEKQFPNGIEPHGTDALRFTLAALASTGRDINWDMKRLEGYRNFCNKLWNASRFVLMNTEGQDCGFNGGEMTLSLADRWILAEFNQTIKAYREALDSFRFDIAAGILYEFTWNQFCDWYLELTKPVMNGGTEAELRGTRHTLVTVLEGLLRLAHPIIPFITETIWQRVKVLCGITADTIMLQPFPQYDASQVDEAALADTEWLKQAIVAVRNIRAEMNIAPGKPLELLLRGCSADAERRVNENRGFLQTLARLESITVLPADDKGPVSVTKIIDGAELLIPMAGLINKEDELARLAKEVAKIEGEISRIENKLANEGFVARAPEAVIAKEREKLEGYAEAKAKLIEQQAVIAAL | 5.35 ± 0.76 h | 3 ± 0.27 h | 5.796 ± 0.013 h | 10.5 ± 0.32 h | 4.721 ± 0.046 h | 5.92 ± 0.23 h | 5.48 ± 1.1 h | 4.68 ± 0.11 h | 4.417 ± 0.013 h | 7.86 ± 0.2 h | 10.7 ± 0.61 h | 5.17 ± 0.062 h
